Laboratory results as given in the supplement of paper PMC12783771.
± gives the standard deviation of the averaged measurements.

B1: library; numbered along this chain (parent)
chain: MNIQIGELAKRTACPVVTIRFYEQEGLLPPPGRSRGNFRLYGEEHVERLQFIRHCRSLDMPLSDVRTLLSYRKRPDQDCGEVNMLLDEHIRQVESRIGALLELKHHLVELREACSGARPAQSCGILQGLSDCVCDTRGTTAHPSD

Legend:
[1] = variants of: B1; assay: sfGFP reporter fluorescence (15 h) (µM FITC); higher = higher leak; details: library round: Round 1; ligand: none
Method in brief: (§1)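 An Echo normalized PCR-made linear PbrR templates to 5 nM and assembled 1 μL reactions in BL21 Star (DE3) PANOx-SP extract carrying the pPbrR-sfGFP reporter plasmid and 30 μg/mL GamS. Reactions received 1 µM lead chloride, 30 µM zinc acetate or no metal and stood 15 hr at 30 °C. Fluorescence at 485/528 nm (Synergy Neo2) was converted with FITC standard curves made in 50 mM sodium borate pH 8.5. Endpoint sfGFP signal is given in µM FITC, from up to three biological replicates.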

[2] = variants of: B1; assay: sfGFP reporter fluorescence (15 h) (µM FITC); higher = stronger transcriptional activation; details: library round: Round 1
Method in brief: as §1

[3] = variants of: B1; assay: sfGFP reporter fluorescence (15 h) (µM FITC); higher = higher leak; details: library round: Round 0; ligand: none
Description: (§2)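 Cell-free (BL21 Star DE3 extract, PANOx-SP) biosensing: 1 µL Echo-assembled reactions with linear PbrR variant templates (5 nM) and pPbrR-sfGFP reporter, with 1 µM Pb (lead chloride), 30 µM Zn (zinc acetate) or no ligand; endpoint sfGFP fluorescence after 15 h at 30 °C, calibrated as µM FITC. Round 0 library (alanine scan, site saturation, combinatorial) of PbrR from Cupriavidus metallidurans; 2 biological replicates.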

[4] = variants of: B1; assay: sfGFP reporter fluorescence (15 h) (µM FITC); higher = stronger transcriptional activation; details: library round: Round 0
Description: as §2

| Variant | sfGFP reporter fluorescence [1] | sfGFP reporter fluorescence ([2]; ligand: 1 µM Pb) | sfGFP reporter fluorescence ([2]; ligand: 30 µM Zn) | sfGFP reporter fluorescence [3] | sfGFP reporter fluorescence ([4]; ligand: 1 µM Pb) | sfGFP reporter fluorescence ([4]; ligand: 30 µM Zn) |
| --- | --- | --- | --- | --- | --- | --- |
| D131T D135Y | 0.074 ± 0.0013 | 0.0933 ± 0.014 | 0.801 ± 0.026 |  |  |  |
| D131T V133P | 0.0641 ± 0.0013 | 0.0767 ± 0.0042 | 0.395 ± 0.036 |  |  |  |
| D131Y D135A | 0.0654 ± 0.0021 | 0.1 ± 0.0045 | 1.61 ± 0.27 |  |  |  |
| D131Y D135P | 0.0677 ± 0.0011 | 0.0826 ± 0.0037 | 0.272 ± 0.021 |  |  |  |
| D135A P143A | 0.0645 ± 0.0011 | 0.0761 ± 0.0051 | 0.423 ± 0.016 |  |  |  |
| D135A P143F | 0.0621 ± 0.0018 | 0.0718 ± 0.0013 | 0.299 ± 0.028 |  |  |  |
| D135A P143M | 0.0655 ± 0.002 | 0.07977 ± 0.00056 | 0.405 ± 0.014 |  |  |  |
| D135A P143T | 0.063 ± 0.0013 | 0.07562 ± 0.00042 | 0.374 ± 0.028 |  |  |  |
| D135A P143W | 0.0683 ± 0.0014 | 0.0809 ± 0.0017 | 0.372 ± 0.0075 |  |  |  |
| D135A P143Y | 0.0639 ± 0.0033 | 0.0797 ± 0.0033 | 0.361 ± 0.028 |  |  |  |
| D135A T136S | 0.065 ± 0.00085 | 0.0751 ± 0.0085 | 0.424 ± 0.047 |  |  |  |
| D135R P143A | 0.0577 ± 0.0043 | 0.0707 ± 0.0053 | 0.317 ± 0.04 |  |  |  |
| D135S P143W | 0.0694 ± 0.00085 | 0.0798 ± 0.0084 | 0.355 ± 0.051 |  |  |  |
| H142C P143A | 0.0676 ± 0.0022 | 0.0772 ± 0.0027 | 0.384 ± 0.03 |  |  |  |
| unchanged | 0.0626 ± 0.0021 | 0.0729 ± 0.0052 | 0.487 ± 0.22 | 0.0588 ± 0.0029 | 0.0826 ± 0.03 | 0.722 ± 0.087 |
| M1A |  |  |  | 0.0618 ± 0.0029 | 0.0715 ± 0.0047 | 0.124 ± 0.0015 |
| N2A |  |  |  | 0.0517 ± 0.001 | 0.0614 ± 0.0065 | 0.801 ± 0.036 |
| I3A |  |  |  | 0.0544 ± 0.0049 | 0.0594 ± 0.001 | 0.339 ± 0.0078 |
| I3C |  |  |  | 0.0586 | 0.0737 ± 0.0052 | 0.774 ± 0.011 |
| I3D |  |  |  | 0.06139 ± 0.00026 | 0.06011 ± 0.00052 | 0.08118 ± 0.00078 |
| I3E |  |  |  | 0.061 ± 0.0013 | 0.0601 ± 0.001 | 0.101 ± 0.0013 |
| I3F |  |  |  | 0.05552 ± 0.00026 | 0.0643 ± 0.0029 | 0.587 ± 0.019 |

| Variant | sfGFP reporter fluorescence [1] | sfGFP reporter fluorescence ([2]; ligand: 1 µM Pb) | sfGFP reporter fluorescence ([2]; ligand: 30 µM Zn) | sfGFP reporter fluorescence [3] | sfGFP reporter fluorescence ([4]; ligand: 1 µM Pb) | sfGFP reporter fluorescence ([4]; ligand: 30 µM Zn) |
| --- | --- | --- | --- | --- | --- | --- |
| I3G |  |  |  | 0.061 ± 0.0023 | 0.0755 ± 0.0047 | 0.1957 ± 0.001 |
| I3H |  |  |  | 0.059 ± 0.001 | 0.0707 ± 0.0021 | 0.356 ± 0.01 |
| I3K |  |  |  | 0.0608 ± 0.001 | 0.0652 ± 0.0057 | 0.308 ± 0.008 |
| I3L |  |  |  | 0.0568 ± 0.0057 | 0.0722 ± 0.0042 | 0.821 ± 0.0098 |
| I3M |  |  |  | 0.0641 ± 0.0015 | 0.0768 ± 0.0018 | 1.27 ± 0.15 |
| I3N |  |  |  | 0.0599 ± 0.0013 | 0.0579 ± 0.0021 | 0.1142 ± 0.00026 |
| I3P |  |  |  | 0.0592 ± 0.0018 | 0.0583 ± 0.0036 | 0.0546 ± 0.0026 |
| I3Q |  |  |  | 0.0548 ± 0.0029 | 0.0671 ± 0.0026 | 0.336 ± 0.0075 |
| I3R |  |  |  | 0.0605 | 0.0792 | 0.376 ± 0.024 |
| I3S |  |  |  | 0.05864 ± 0.00052 | 0.0605 ± 0.0036 | 0.2084 ± 0.0013 |
| I3T |  |  |  | 0.0597 ± 0.001 | 0.0667 ± 0.0047 | 0.331 ± 0.011 |
| I3V |  |  |  | 0.0619 ± 0.001 | 0.124 ± 0.0044 | 1.32 ± 0.025 |
| I3W |  |  |  | 0.05919 ± 0.00026 | 0.0766 ± 0.001 | 0.957 ± 0.056 |
| I3Y |  |  |  | 0.0612 ± 0.0021 | 0.06744 ± 0.00052 | 0.977 ± 0.061 |
| Q4A |  |  |  | 0.0537 ± 0.0044 | 0.0555 ± 0.0018 | 0.4821 ± 0.0029 |
| I5A |  |  |  | 0.0515 ± 0.0039 | 0.05186 ± 0.00026 | 0.0817 ± 0.0036 |
| G6A |  |  |  | 0.0504 ± 0.0018 | 0.0491 ± 0.00052 | 0.09016 ± 0.00052 |
| G6C |  |  |  | 0.0601 ± 0.0026 | 0.05882 ± 0.00026 | 0.0621 ± 0.0018 |
| G6D |  |  |  | 0.06377 ± 0.00052 | 0.06047 ± 0.00052 | 0.0621 ± 0.00078 |
| G6E |  |  |  | 0.0636 ± 0.0034 | 0.0605 ± 0.0015 | 0.0625 ± 0.0034 |
| G6F |  |  |  | 0.0592 ± 0.0018 | 0.06029 ± 0.00026 | 0.0629 ± 0.00078 |
